Consider three molecules from paper PMC13066097 (Nature Communications, 2026).

The target in experiment [1] is T1, recombinant PcrV protein (rePcrV) coated on ELISA plates (Pseudomonas aeruginosa, strain not told …).
T1 chain: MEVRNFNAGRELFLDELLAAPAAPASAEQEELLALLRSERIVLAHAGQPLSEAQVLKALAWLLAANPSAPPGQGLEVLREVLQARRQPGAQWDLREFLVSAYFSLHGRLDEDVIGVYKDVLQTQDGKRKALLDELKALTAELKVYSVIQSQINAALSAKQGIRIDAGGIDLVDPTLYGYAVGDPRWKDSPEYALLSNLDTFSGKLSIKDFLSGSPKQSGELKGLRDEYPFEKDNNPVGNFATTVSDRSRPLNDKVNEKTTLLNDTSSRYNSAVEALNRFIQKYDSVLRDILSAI
Briefly: ELISA.

Experiment [2] has as its target T2, 6xHis-tagged PcrV of P. aeruginosa clinical isolate KN5 expressed in E. coli (Pseudomonas aeruginosa KN5 (ST357), strain).
T2 chain: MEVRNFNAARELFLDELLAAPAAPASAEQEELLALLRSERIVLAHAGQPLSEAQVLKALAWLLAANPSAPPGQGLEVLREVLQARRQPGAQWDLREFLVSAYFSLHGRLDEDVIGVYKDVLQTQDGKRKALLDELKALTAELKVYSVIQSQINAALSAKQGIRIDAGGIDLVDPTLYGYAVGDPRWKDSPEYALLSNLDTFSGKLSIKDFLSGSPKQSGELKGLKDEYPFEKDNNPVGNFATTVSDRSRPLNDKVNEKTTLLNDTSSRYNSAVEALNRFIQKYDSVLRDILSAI
The experiment is described as follows: immunoblot. (In general: A western blot detects proteins with antibodies after separation by electrophoresis.)

For experiment [3], the target named is 6xHis-tagged PcrV of P. aeruginosa clinical isolate KN15 expressed in E. coli (Pseudomonas aeruginosa KN15 (ST512), strain). Briefly: immunoblot.
In experiment [4] the target is T3, 6xHis-tagged PcrV of P. aeruginosa clinical isolate KN17 expressed in E. coli (Pseudomonas aeruginosa KN17 (ST357), strain).
T3 chain: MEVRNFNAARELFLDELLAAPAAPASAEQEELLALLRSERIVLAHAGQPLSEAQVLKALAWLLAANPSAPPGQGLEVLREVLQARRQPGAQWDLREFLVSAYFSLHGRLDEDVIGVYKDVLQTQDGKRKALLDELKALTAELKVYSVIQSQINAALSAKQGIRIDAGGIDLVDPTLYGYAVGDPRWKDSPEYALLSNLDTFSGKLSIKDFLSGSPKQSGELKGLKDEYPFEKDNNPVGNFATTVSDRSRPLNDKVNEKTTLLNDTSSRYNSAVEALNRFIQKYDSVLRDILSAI
Briefly: immunoblot.

For experiment [5], the target named is T4, 6xHis-tagged PcrV of P. aeruginosa clinical isolate KN27 expressed in E. coli (Pseudomonas aeruginosa KN27 (ST235), strain).
T4 chain: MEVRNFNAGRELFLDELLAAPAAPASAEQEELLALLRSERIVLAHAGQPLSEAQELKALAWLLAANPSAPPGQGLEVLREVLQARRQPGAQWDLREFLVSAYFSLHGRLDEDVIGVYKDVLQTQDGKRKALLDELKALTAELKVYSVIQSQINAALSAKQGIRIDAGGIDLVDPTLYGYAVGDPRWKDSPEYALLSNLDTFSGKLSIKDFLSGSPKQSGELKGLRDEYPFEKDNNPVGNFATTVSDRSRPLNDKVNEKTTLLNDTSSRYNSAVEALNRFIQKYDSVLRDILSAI
The experiment is described as follows: immunoblot.

The target in experiment [6] is T5, 6xHis-tagged PcrV of P. aeruginosa clinical isolate KN28 expressed in E. coli (Pseudomonas aeruginosa KN28 (ST357), strain).
T5 chain: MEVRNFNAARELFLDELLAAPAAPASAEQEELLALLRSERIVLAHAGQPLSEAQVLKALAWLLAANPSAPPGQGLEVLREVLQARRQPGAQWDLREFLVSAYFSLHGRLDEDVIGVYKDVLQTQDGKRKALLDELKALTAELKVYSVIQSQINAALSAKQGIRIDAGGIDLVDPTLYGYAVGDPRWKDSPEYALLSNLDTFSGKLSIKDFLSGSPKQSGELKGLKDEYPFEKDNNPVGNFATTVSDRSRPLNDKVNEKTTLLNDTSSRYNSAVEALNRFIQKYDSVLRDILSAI
Briefly: immunoblot.

In experiment [7] the target is 6xHis-tagged PcrV of P. aeruginosa clinical isolate KN33 expressed in E. coli (Pseudomonas aeruginosa KN33 (ST508), strain). The experiment is described as follows: immunoblot.
In experiment [8] the target is 6xHis-tagged PcrV of P. aeruginosa clinical isolate KN34 expressed in E. coli (Pseudomonas aeruginosa KN34 (ST186), strain). The experiment is described as follows: immunoblot.
The target in experiment [9] is 6xHis-tagged PcrV of P. aeruginosa clinical isolate KN37 expressed in E. coli (Pseudomonas aeruginosa KN37 (ST244), strain). Briefly: immunoblot.
Experiment [10] addresses T6, 6xHis-tagged PcrV of P. aeruginosa clinical isolate KN41 expressed in E. coli (Pseudomonas aeruginosa KN41 (ST235), strain).
T6 chain: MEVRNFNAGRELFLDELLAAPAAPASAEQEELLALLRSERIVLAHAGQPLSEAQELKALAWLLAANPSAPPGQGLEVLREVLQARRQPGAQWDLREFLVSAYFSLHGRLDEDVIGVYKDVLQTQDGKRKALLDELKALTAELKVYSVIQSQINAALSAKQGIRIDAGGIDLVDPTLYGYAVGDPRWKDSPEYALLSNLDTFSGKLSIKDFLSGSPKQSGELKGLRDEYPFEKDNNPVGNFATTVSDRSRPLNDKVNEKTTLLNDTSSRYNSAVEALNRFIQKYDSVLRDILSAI
The experiment is described as follows: immunoblot.

Experiment [11] concerns the target T7, 6xHis-tagged PcrV of P. aeruginosa clinical isolate KP2401 expressed in E. coli (Pseudomonas aeruginosa KP2401 (ST5295), strain).
T7 chain: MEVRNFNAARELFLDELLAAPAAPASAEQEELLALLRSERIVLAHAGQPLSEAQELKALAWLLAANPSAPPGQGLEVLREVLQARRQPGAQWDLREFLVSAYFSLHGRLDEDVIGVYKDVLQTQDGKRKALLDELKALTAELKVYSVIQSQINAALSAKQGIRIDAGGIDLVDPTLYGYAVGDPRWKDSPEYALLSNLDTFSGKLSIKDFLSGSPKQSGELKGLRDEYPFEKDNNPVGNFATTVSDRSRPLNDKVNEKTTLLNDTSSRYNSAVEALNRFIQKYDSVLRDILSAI
Briefly: immunoblot.

For experiment [12], the target named is T8, PcrV of P. aeruginosa clinical isolate KN17, from bacterial culture (Pseudomonas aeruginosa clinical isolate …, strain).
T8 chain: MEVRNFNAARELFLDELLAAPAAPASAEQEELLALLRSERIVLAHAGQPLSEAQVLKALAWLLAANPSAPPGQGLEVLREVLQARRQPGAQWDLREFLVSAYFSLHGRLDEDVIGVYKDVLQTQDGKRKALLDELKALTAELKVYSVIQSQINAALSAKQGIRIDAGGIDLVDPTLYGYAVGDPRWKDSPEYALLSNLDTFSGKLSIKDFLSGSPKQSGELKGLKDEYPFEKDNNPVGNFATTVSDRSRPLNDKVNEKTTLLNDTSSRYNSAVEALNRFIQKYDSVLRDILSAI
The experiment is described as follows: immunoblot.

In experiment [13] the target is T9, PcrV of P. aeruginosa clinical isolate KN27, from bacterial culture (Pseudomonas aeruginosa KN27 (ST235), strain).
T9 chain: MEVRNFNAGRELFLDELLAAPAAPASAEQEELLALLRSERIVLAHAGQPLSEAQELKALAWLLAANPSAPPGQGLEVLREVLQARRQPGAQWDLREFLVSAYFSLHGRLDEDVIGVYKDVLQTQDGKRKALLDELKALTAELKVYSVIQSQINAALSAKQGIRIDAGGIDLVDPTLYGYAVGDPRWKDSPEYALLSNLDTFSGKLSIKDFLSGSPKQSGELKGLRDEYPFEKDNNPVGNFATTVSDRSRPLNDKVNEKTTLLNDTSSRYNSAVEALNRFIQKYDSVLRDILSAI
Briefly: immunoblot.

For experiment [14], the target named is T10, PcrV of P. aeruginosa clinical isolate KN28, from bacterial culture (Pseudomonas aeruginosa KN28 (ST357); …, strain).
T10 chain: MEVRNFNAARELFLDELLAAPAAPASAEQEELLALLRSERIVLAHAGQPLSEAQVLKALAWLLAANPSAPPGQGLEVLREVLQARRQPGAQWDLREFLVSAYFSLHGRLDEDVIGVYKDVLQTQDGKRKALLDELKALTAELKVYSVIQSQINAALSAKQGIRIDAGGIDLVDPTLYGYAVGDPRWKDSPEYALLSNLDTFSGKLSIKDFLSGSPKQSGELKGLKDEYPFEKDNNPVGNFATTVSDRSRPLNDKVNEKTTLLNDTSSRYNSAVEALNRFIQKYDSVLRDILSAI
The experiment is described as follows: immunoblot.

In experiment [15] the target is PcrV of P. aeruginosa clinical isolate KN33, from bacterial culture (Pseudomonas aeruginosa KN33 (ST508), UniProt G3XD49, strain). The experiment is described as follows: immunoblot.
For experiment [16], the target named is PcrV of P. aeruginosa clinical isolate KN34, from bacterial culture (Pseudomonas aeruginosa KN34 (ST186), UniProt G3XD49, strain). The experiment is described as follows: immunoblot.
For experiment [17], the target named is PcrV of P. aeruginosa clinical isolate KN37, from bacterial culture (Pseudomonas aeruginosa KN37 (ST244), UniProt G3XD49, strain). Briefly: immunoblot.
Experiment [18] addresses T11, PcrV of P. aeruginosa clinical isolate KN41, from bacterial culture (Pseudomonas aeruginosa KN41 (ST235), strain).
T11 chain: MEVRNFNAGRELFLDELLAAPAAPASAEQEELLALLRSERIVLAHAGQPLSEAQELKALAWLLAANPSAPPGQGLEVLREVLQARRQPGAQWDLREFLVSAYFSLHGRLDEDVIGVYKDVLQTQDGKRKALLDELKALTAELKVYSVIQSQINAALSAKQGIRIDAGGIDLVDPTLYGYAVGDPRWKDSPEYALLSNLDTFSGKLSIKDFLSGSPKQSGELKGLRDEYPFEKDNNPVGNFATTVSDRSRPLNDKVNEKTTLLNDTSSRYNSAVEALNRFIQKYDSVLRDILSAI
The experiment is described as follows: immunoblot.

In experiment [19] the target is T12, PcrV of P. aeruginosa clinical isolate KP2401, from bacterial culture (Pseudomonas aeruginosa KP2401 (ST5295), strain).
T12 chain: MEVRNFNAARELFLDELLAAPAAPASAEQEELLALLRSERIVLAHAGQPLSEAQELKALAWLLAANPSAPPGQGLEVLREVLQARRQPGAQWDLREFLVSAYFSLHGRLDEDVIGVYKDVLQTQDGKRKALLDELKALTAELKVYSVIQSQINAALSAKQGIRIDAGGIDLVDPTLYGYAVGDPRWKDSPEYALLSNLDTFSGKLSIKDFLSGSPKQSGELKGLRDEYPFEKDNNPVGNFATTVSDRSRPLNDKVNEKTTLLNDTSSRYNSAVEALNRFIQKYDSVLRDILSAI
The experiment is described as follows: immunoblot.

In experiment [20] the target is PcrV of P. aeruginosa strain PAO1, from bacterial culture (Pseudomonas aeruginosa PAO1). Briefly: immunoblot.
Experiment [21] addresses T13, PcrV of P. aeruginosa clinical isolate KN5, from bacterial culture (Pseudomonas aeruginosa KN5 (ST357), strain).
T13 chain: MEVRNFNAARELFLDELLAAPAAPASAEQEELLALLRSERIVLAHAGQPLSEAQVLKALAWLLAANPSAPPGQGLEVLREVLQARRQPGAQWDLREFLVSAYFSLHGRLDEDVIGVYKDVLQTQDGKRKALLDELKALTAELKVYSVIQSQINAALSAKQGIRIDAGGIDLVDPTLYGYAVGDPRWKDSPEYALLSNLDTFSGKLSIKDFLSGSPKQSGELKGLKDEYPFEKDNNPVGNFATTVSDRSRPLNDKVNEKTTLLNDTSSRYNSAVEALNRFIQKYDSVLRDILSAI
The experiment is described as follows: immunoblot.

Experiment [22] addresses PcrV of P. aeruginosa clinical isolate KN15, from bacterial culture (Pseudomonas aeruginosa KN15 (ST512), strain). The experiment is described as follows: immunoblot.

B1: anti-PcrV scFv antibody scFv-m166 (recombinant protein) (scFv, V domains shown)
VH: QVQLKQSGPGLVQPSQSLSITCTVSGFSLTSYGVHWVRQSPGKGLEWLGVIWSGGDTDYNAAFISRLSISKDNSKSQLFFKMNSLRATDTAIYYCARNRGDIYYDFTYAMDYWGQGTSVTVSS
VL: DIQMTQSPASLSASVGETVTITCRASGNIQNYLAWYQQTQGKSPQLLVYSAKTLADGVPSRFSGSGSGTQYSLKINSLQPEDFGSYYCQHFWSTPYTFGGGTKLEIK
For the molecule B1, the EC50 in [1] stood at 35 nM.

B2: anti-PcrV scFv conjugated with the mouse IgG1 hinge, CH2 and CH3 domains, scFv-m166-mFc (recombinant protein) (Fc fusion)
VH: QVQLKQSGPGLVQPSQSLSITCTVSGFSLTSYGVHWVRQSPGKGLEWLGVIWSGGDTDYNAAFISRLSISKDNSKSQLFFKMNSLRATDTAIYYCARNRGDIYYDFTYAMDYWGQGTSVTVSS
VL: DIQMTQSPASLSASVGETVTITCRASGNIQNYLAWYQQTQGKSPQLLVYSAKTLADGVPSRFSGSGSGTQYSLKINSLQPEDFGSYYCQHFWSTPYTFGGGTKLEIK
In the case of B2, the EC50 in experiment [1] came to 57.2 nM.

B3: murine monoclonal anti-PcrV IgG mAb166 (antibody, V domains shown)
VH: QVQLKQSGPGLVQPSQSLSITCTVSGFSLTSYGVHWVRQSPGKGLEWLGVIWSGGDTDYNAAFISRLSISKDNSKSQLFFKMNSLRATDTAIYYCARNRGDIYYDFTYAMDYWGQGTSVTVSS
VL: DIQMTQSPASLSASVGETVTITCRASGNIQNYLAWYQQTQGKSPQLLVYSAKTLADGVPSRFSGSGSGTQYSLKINSLQPEDFGSYYCQHFWSTPYTFGGGTKLEIK
As to B3, the binding result in experiment [2], in experiment [3], in experiment [4], in experiment [5], in [6] and in experiment [7] was “binds” throughout. Besides, the binding result in experiment [8], in experiment [9], in experiment [10], in experiment [11], in experiment [12] and in [13] was “binds” in each case. The binding result in experiment [14], in experiment [15], in [16], in experiment [17], in experiment [18] and in experiment [19] was “binds” in each case. Moreover, the binding result in experiment [20], in experiment [21] and in experiment [22] was “binds” throughout.

One may read the EC50 as the concentration giving half of the maximal effect.
